The subject of data set [1] is CCCCCCCCCCCCCCCC(=O)Oc1ccc([N+](=O)[O-])cc1. The experiment in a line: p-nitrophenol release, Lineweaver-Burk. The format is biochemical, Rhizopus microsporus. The settings on record: Tris-HCl pH 9, 37 °C, substrate 4-PNN [sic], 4-NPP in materials, apparent Km. From the text:
(§1) p-nitrophenol release, Lineweaver-Burk on Lipr27RCL

Substrate in data set [2]: CCCCCCCCCCCCCCCC(=O)Oc1ccc([N+](=O)[O-])cc1
In words: p-nitrophenol release, Lineweaver-Burk. The data set is classed as biochemical, Rhizopus microsporus. As to conditions: Tris-HCl pH 9, 37 °C, substrate 4-PNN [sic], 4-NPP in materials, apparent Km.
From the text: as §1
This is another data set of the same source.

This is an account of results in article PMC7063977, “Improving the Thermostability of Rhizopus chinensis Lipase Through Site-Directed Mutagenesis Based on B-Factor Analysis” (Frontiers in Microbiology, 2020).

A word on the Km: it is the concentration of substrate that gives half-maximal velocity. A word on the Vmax: it is the top rate of the reaction or transport when substrate is in excess. As usually defined, the kcat is the maximal rate divided by the concentration of active sites. The term kcat/Km denotes the turnover number divided by the Michaelis constant. As for “Lipr27RCL (Rhizopus microsporus var. chinensis; K157N)”, in data set [1], the Michaelis-Menten constant (Km) is 290 ± 90 µM, the maximum rate (Vmax) is 588 µmol/min/mg, the kcat was found to be 185 ± 18.5 s⁻¹ and the catalytic efficiency (kcat/Km) was 637000 M⁻¹ s⁻¹.
Regarding “Lipr27RCL (Rhizopus microsporus var. chinensis; K161T)”, in data set [1], the Michaelis-Menten constant (Km) came out at 290 ± 60 µM, the Vmax was 714 µmol/min/mg, the turnover number (kcat) came to 188 ± 13.7 s⁻¹ and the kcat/Km amounted to 648000 M⁻¹ s⁻¹.
On the same counts, the results for “Lipr27RCL (Rhizopus microsporus var. chinensis; D159T)” are 380 ± 50 µM, 709 µmol/min/mg, 187 ± 16.3 s⁻¹ and 491000 M⁻¹ s⁻¹.
On to “Lipr27RCL (Rhizopus microsporus var. chinensis; W158I)”, for which, in data set [1], the Km is 450 ± 40 µM, the Vmax amounted to 500 µmol/min/mg, the kcat worked out at 132 ± 19.4 s⁻¹ and the catalytic efficiency (kcat/Km) was determined as 292000 M⁻¹ s⁻¹.

B1: Lipr27RCL (Rhizopus microsporus var. chinensis) (protein)
chain: DTETVGGMTLDLPENPPPIPATSTAPSSDSGEVVTATAAQIKELTNYAGVAATAYCRSVVPGTKWDCKQCLKYVPDGKLIKTFTSLLTDTNGFILRSDAQKTIYVTFRGTNSFRSAITDMVFTFTDYSPVKGAKVHAGFLSSYNQVVKDYFPVVQDQLTAYPDYKVIVTGHSLGGAQALLAGMDLYQREKRLSPKNLSIYTVGCPRVGNNAFAYYVDSTGIPFHRTVHKRDIVPHVPPQAFGYLHPGVESWIKEDPADVQICTSNIETKQCSNSIVPFTSIADHLTYFGINEGSCL
Regarding B1, in data set [2], the Michaelis constant (Km) worked out at 360 ± 60 µM, the maximum rate (Vmax) came to 714 µmol/min/mg, the turnover number (kcat) was found to be 188 ± 18.2 s⁻¹ and the kcat/Km turned out to be 522000 M⁻¹ s⁻¹.
